In brackets after ≈: the same amount, converted by molar mass. Read-outs that look alike come from different tables or passages of the source.
How the values were obtained:
[1] = target: mu-yPheRS (Thr415Gly or Thr415Ala mutation in the α-subunit) (Saccharomyces cerevisiae, UniProt P15625, T415G); assay: adenosine triphosphate-pyrophosphate exchange assay, activation of NaI and Phe by mu-yPheRS; type: biochemical
Description: The modified yeast PheRS (mu-yPheRS) was prepared by introduction of a Thr415Gly or Thr415Ala mutation in the α-subunit of the synthetase (Datta et al., J. Am. Chem. Soc. 124: 5652, 2002). The kinetics of activation of NaI and Phe by mu-yPheRS were analyzed in vitro via the adenosine triphosphate-pyrophosphate exchange assay. […] In addition, the T415G mutant was generated by four-primer mutagenesis.

[2] = target: T1, mutant yeast PheRS with mutations in N412G, S418C, T415G and S437F (Saccharomyces cerevisiae, UniProt P15625, N412G/S418C/S437F/T415G); assay: yeast PheRS library GFP/FACS screening, incorporation at UUU codon; type: cell-based; conditions: mutant yPheRS N412G, S437F after two cycles of screening
T1 construct: expressed in transfected cells; host or cells: E. coli AFW and DHF cells carrying pQE9_GFP6/GFP9_yPheRS library plasmids
Description: For example, in one embodiment, a yeast PheRS library is subjected to double sieve screening in order to detect high levels of incorporation of a non-natural amino acid or misincorporation of natural amino acids other than Phe will lead to severe misfolding or unfolding of GFP. The yeast PheRS library cells are thus subjected to high-throughput screening based on flow cytommetry analysis (FACS). First, the yeast PheRS library cells are expressed in the presence of 2NaI and low fluorescent cells indicating higher incorporation of either 2NaI or other natural amino acids are collected by FACS. Next, the yeast PheRS library cells are expressed without 2NaI. Bright cells are collected in order to eliminate yeast PheRS variants that can misincorporate other natural amino acids.
Library construction was performed in two steps as well. […]
The library was transformed into chemical-competent AFW and DHF E. coli cells. […] Glycerol stocks of the library were expressed as is standard in the art.
After expression of GFP for 3 hours, 1 mL of cells (based on OD600 of 1.0) were washed with PBS and diluted in distilled water, then subjected to flow cytometric analysis (MoFlo cell Sorter®, DakoCytomation, Fort Collins, Colo.), using an excitation wavelength of 488 nm, emission of 525 nm, and a cut-off filter of 495 nm. […] Data were analyzed with Summit software (DakoCytomation). […]

[3] = system: Escherichia coli; conditions: E. coli cells, cited from earlier work
[4] = target: (T415A) yeast phenylalanine aminoacyl tRNA synthetase (PheRS) (Saccharomyces cerevisiae, UniProt P15625, T415A); type: biochemical
Description: The amino acid-dependent ATP-PP; exchange reaction was used to evaluate the activation of amino acid analogs by yPheRS as described in the above Examples. Briefly, a 200 microliter aliquot of reaction buffer contains 50 mM HEPES (pH 7.6), 20 nM MgCl2, 1 mM DTT, 2 mM ATP, and 2 mM ^32P-pyrophosphate (PPi) with specific activity of 10-50 Ci/mol. Depending on the activity of analogs by the synthetase, the amino acid concentration varied from 10 microM to 2.5 mM and enzyme concentration varied from 10 nM to 100 nM. Aliquots of 20 microliters were removed from the reaction solution at various time points and quenched into 500 microliters of buffer solution containing 200 mN NaPPi, 7% w/v HclO4, and 3% w/v activated charcoal. The charcoal was spun down and washed twice with 500 microliters of 10 mM NaPP; and 0.5% HClO4 solution. The radio-labeled ATP absorbed into the charcoal was quantified via liquid scintillation methods. The specificity constants were calculated by non linear regression fit for the data to a Michaelis Menten model.

[5] = target: modified yeast PheRS (T415G) and tRNA^Phe with an amber suppressor (Saccharomyces cerevisiae, UniProt P15625, T415G); type: cell-based; conditions: FIG. 13 mass spectra
Description: A yeast PheRS library (using green fluorescent protein or GFP) was screened to identify PheRS mutations that enable the incorporation of NaI.
Briefly, GFP was ligated into a vector containing the mutant T415G or wild type yeast PheRS gene according to standard procedures. The mutant yeast amber suppressor tRNA (yRNA^PheAAA) was constitutively expressed under control of Ipp promoter and transformed into a Phe/Trp double E. coli auxotrophic strain AFW. Cells were grown in M9 minimal medium supplemented with glucose, thiamin, MgSO4, CaCl2, 20 amino acids (at 25 mg/L), antibiotics (35 μg/mL of kanamycin and 100 μg/mL of ampicillin). When cells reached an OD600 of 0.8-1.0, cells were pelleted and washed twice by ice-cold 0.9% NaCl and shifted to expression media supplemented with 18 amino acids (at 20 mg/L) and various concentrations of phenylalanine, tryptophan and 2NaI. Protein expression was induced by IPTG.

[6] = system: N[C@@H](Cc1ccccc1)C(=O)O; assay: purified protein, by the assay type; conditions: pH 7.6
[7] = system: N[C@@H](Cc1ccc2ccccc2c1)C(=O)O; assay: purified protein, by the assay type; conditions: pH 7.6
[8] = system: N[C@@H](Cc1c[nH]c2ccccc12)C(=O)O; assay: purified protein, by the assay type; conditions: pH 7.6
[9] = substrate: N[C@@H](Cc1ccccc1)C(=O)O; assay: ATP-PPi exchange of amino acids by wild type yPheRS, Example 3; type: biochemical, Saccharomyces cerevisiae; conditions: other: enzyme wild type; pH 7.6
Description: The amino acid dependent ATP-PP; exchange reaction was used to evaluate the activation of non-natural amino acids by yPheRS. The assay was performed in 200 mincroliters of reaction buffer containing 50 mM HEPES (pH=7.6), 20 mM MgCl2, 1 mM DTT, 2 mM ATP and 2 mM [^32P]-PPi with specific activity of 0.2-0.5 TBq/mol. Depending on the activity of the various non-natural amino acids with the synthetase, the amino acid concentration varied from 10 microM to 5 mM and enzyme concentration varied from 10 nM to 100 nM. Aliquots of 20 microliters were removed from the reaction solution at various time points and quenched into 500 microliters of buffer solution containing 200 mM NaPPi, 7% w/v HClO4 and 3% w/v activated charcoal. The charcoal was spun down and washed twice with 500 microliters of 10 mM NaPPi and 0.5% HclO4 solution. The radio-labeled ATP absorbed into the charcoal was quantified via liquid scintillation methods. The specificity constants were calculated by nonlinear regression fit of the data to a Michaelis Menten model. The kinetic parameters for the ATP-PPi exchange of amino acids by the yPheRS (T415G), wild type yPheRS, and yPheRS_naph variant are shown in the table below.

Sequence of mu-yPheRS (Thr415Gly or Thr415Ala mutation in the α-subunit) (P15625 2-503 T415G): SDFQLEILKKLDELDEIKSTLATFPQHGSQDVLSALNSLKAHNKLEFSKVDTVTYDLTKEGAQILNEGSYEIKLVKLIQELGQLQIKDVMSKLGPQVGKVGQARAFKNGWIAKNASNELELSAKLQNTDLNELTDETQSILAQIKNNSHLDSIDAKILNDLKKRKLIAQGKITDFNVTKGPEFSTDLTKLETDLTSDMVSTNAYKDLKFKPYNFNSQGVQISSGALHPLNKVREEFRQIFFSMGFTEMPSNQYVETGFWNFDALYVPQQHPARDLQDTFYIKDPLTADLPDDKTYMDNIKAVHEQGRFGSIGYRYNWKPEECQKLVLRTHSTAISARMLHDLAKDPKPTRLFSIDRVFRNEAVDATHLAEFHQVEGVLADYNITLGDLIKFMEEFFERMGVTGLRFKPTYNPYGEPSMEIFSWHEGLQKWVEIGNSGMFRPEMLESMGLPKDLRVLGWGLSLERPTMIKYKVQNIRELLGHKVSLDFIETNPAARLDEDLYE
Sequence of mu-yPheRS (Thr415Gly or Thr415Ala mutation in the α-subunit) (P15624 2-595, further chain): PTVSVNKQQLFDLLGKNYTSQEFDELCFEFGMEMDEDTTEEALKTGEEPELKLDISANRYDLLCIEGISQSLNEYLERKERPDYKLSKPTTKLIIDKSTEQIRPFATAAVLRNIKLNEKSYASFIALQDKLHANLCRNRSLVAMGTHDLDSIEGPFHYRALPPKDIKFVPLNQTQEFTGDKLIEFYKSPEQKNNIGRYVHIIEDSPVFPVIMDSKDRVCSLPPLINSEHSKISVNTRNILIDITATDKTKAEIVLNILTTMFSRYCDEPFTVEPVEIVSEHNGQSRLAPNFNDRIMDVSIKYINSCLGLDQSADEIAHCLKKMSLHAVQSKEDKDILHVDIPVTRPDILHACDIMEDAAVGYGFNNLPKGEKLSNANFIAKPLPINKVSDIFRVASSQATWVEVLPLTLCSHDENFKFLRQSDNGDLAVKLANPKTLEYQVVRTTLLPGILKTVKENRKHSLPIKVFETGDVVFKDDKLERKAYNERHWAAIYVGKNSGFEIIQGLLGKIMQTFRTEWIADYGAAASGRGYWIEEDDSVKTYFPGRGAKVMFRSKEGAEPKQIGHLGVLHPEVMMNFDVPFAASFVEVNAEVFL
Sequence of (T415A) yeast phenylalanine aminoacyl tRNA synthetase (PheRS) (P15624 whole entry): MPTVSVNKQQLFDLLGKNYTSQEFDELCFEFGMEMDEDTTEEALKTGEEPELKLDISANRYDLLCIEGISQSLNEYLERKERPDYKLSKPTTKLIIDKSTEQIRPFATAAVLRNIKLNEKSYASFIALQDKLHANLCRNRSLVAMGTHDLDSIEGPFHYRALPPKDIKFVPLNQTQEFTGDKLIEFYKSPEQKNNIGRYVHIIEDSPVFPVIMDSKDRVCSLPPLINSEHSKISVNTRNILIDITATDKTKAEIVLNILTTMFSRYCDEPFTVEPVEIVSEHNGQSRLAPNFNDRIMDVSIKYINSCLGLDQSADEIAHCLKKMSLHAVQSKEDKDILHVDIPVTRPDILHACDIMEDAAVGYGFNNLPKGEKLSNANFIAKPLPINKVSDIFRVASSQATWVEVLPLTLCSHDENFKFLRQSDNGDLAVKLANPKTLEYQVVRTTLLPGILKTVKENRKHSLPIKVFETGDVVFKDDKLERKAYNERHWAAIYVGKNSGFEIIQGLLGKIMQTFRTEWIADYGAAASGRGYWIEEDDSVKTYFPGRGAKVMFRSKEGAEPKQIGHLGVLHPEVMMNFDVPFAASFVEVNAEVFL
Sequence of (T415A) yeast phenylalanine aminoacyl tRNA synthetase (PheRS) (P15625 whole entry T415A): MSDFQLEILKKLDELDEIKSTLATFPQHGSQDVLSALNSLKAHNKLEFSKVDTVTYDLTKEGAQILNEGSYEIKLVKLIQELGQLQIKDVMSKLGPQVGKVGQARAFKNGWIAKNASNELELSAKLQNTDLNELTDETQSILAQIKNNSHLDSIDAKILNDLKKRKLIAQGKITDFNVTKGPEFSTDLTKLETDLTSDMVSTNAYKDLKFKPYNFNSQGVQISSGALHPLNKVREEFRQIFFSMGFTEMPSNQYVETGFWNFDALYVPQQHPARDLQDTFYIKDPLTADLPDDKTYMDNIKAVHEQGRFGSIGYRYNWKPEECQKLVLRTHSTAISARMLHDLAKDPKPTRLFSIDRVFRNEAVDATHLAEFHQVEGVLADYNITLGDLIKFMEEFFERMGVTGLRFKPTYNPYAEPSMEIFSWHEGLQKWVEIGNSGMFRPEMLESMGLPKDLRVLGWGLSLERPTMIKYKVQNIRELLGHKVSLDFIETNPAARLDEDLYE

For N[C@@H](Cc1ccc2ccccc2c1)C(=O)O [2Nal, 3-(2-naphthyl)alanine], which “specificity constant (kcat/KM), fold larger than that for Phe” value [1] is on record?
The value was 8 fold.

What about the “incorporation at UUU codon” value [2] of the same molecule?
Its value is “around 90%”.

With CC1(C)S[C@@H]2[C@H](NC(=O)[C@H](N)c3ccccc3)C(=O)N2[C@H]1C(=O)O [ampicillin] as the molecule, how does the IC50 ([3]; SctRNAGInCUA coexpressed with ScGInRS) read?
Its IC50 is “about 500 μg/mL”.

What about the IC50 ([3]; only SctRNAGInCUA expressed) of the same molecule?
The IC50 was 20 µg/mL (≈ 57.2 µM).

For N[C@@H](Cc1ccc(Br)cc1)C(=O)O [bromophenylalanine, p-bromo-phenylalanine], which “preference for bromophenylalanine than for naturally occurring phenylalanine” value [4] is on record?
Its value is 5 fold.

For C#Cc1ccc(C[C@H](N)C(=O)O)cc1 [p-ethynyl-phenylalanine], which “incorporation into a test protein” value [5] is on record?
The value was “incorporated into a test protein”.

With “yPheRS (T415G) (Saccharomyces cerevisiae S288C; T415G)” as the molecule, how does the Km ([6]; other: enzyme T415G) read?
The Km was 55 ± 14 µM.

What about the kcat ([6]; other: enzyme T415G) of the same molecule?
Its kcat is 0.202 ± 0.11 s⁻¹.

What about the kcat/Km ([6]; other: enzyme T415G) of the same molecule?
Its kcat/Km is 3510 ± 1130 M⁻¹ s⁻¹.

And the Km ([7]; other: enzyme T415G)?
The Km was 7.03 ± 0.14 µM.

What about the kcat ([7]; other: enzyme T415G) of the same molecule?
The kcat was 0.208 ± 0.04 s⁻¹.

And the kcat/Km ([7]; other: enzyme T415G)?
Its kcat/Km is 29500 ± 5850 M⁻¹ s⁻¹.

What about the Km ([8]; other: enzyme T415G) of the same molecule?
The Km was 2.83 ± 1.6 µM.

And the kcat ([8]; other: enzyme T415G)?
Its kcat is 0.153 ± 0.003 s⁻¹.

And the kcat/Km ([8]; other: enzyme T415G)?
The kcat/Km was 63200 ± 34600 M⁻¹ s⁻¹.

Which results are given for “yPheRS_naph variant (Saccharomyces cerevisiae S288C; N412G/S418C/S437F/T415G)”?
Km ([6]; other: enzyme naph): 11010 ± 2688 µM; kcat ([6]; other: enzyme naph): 0.0095 ± 0.0021 s⁻¹; kcat/Km ([6]; other: enzyme naph): 0.855 ± 0.007 M⁻¹ s⁻¹; Km ([7]; other: enzyme naph): 2030 ± 691 µM; kcat ([7]; other: enzyme naph): 0.03 ± 0.018 s⁻¹; kcat/Km ([7]; other: enzyme naph): 14.5 ± 4.22 M⁻¹ s⁻¹; Km ([8]; other: enzyme naph): 1424 ± 597 µM; kcat ([8]; other: enzyme naph): 0.0035 ± 0.0009 s⁻¹; kcat/Km ([8]; other: enzyme naph): 2.52 ± 0.44 M⁻¹ s⁻¹

B1: wild type yPheRS (Saccharomyces cerevisiae S288C) (protein)
chain: MSDFQLEILKKLDELDEIKSTLATFPQHGSQDVLSALNSLKAHNKLEFSKVDTVTYDLTKEGAQILNEGSYEIKLVKLIQELGQLQIKDVMSKLGPQVGKVGQARAFKNGWIAKNASNELELSAKLQNTDLNELTDETQSILAQIKNNSHLDSIDAKILNDLKKRKLIAQGKITDFNVTKGPEFSTDLTKLETDLTSDMVSTNAYKDLKFKPYNFNSQGVQISSGALHPLNKVREEFRQIFFSMGFTEMPSNQYVETGFWNFDALYVPQQHPARDLQDTFYIKDPLTADLPDDKTYMDNIKAVHEQGRFGSIGYRYNWKPEECQKLVLRTHSTAISARMLHDLAKDPKPTRLFSIDRVFRNEAVDATHLAEFHQVEGVLADYNITLGDLIKFMEEFFERMGVTGLRFKPTYNPYTEPSMEIFSWHEGLQKWVEIGNSGMFRPEMLESMGLPKDLRVLGWGLSLERPTMIKYKVQNIRELLGHKVSLDFIETNPAARLDEDLYE
Which Km [9] does the source give for B1 here?
Its Km is 3.85 ± 0.99 µM.

And the kcat [9]?
The kcat was 0.181 ± 0.011 s⁻¹.

What about the kcat/Km [9] of the same molecule?
Its kcat/Km is 51000 ± 22700 M⁻¹ s⁻¹.

— US8980581B2, “Site-specific incorporation of amino acids into molecules” (California Institute of Technology, priority 2006, dated 2015)
